Test results as given in publication PMC7641761.

Legend:
[1] = target: Ku70/Ku80 heterodimer FL (baculovirus) (human) (UniProt P12956+P13010); assay: MST; conditions: 1 mM DTT, 24 C, 40 nM FAM-RNA, EMSA: 25 mM Hepes-KOH pH 7.5, 50 mM NaCl, 1 mM EDTA, 10% glycerol, 0.1 uM BSA …
[2] = target: Ku5D T305D;S306D;T307D;S314D;T316D (human) (UniProt P12956+P13010); assay: MST; conditions: MST: 50 mM Tris pH 8.0, 50 mM NaCl, 1 mM DTT, 24 C, 40 nM FAM-RNA, EMSA: 25 mM Hepes-KOH pH 7.5, 50 mM NaCl, 1 mM EDTA, 10% glycerol, 0.1 uM BSA …
Ku5D T305D;S306D;T307D;S314D;T316D (human), sequence (P12956 whole entry T305D/S306D/T307D/S314D/T316D, chain 1 of 2): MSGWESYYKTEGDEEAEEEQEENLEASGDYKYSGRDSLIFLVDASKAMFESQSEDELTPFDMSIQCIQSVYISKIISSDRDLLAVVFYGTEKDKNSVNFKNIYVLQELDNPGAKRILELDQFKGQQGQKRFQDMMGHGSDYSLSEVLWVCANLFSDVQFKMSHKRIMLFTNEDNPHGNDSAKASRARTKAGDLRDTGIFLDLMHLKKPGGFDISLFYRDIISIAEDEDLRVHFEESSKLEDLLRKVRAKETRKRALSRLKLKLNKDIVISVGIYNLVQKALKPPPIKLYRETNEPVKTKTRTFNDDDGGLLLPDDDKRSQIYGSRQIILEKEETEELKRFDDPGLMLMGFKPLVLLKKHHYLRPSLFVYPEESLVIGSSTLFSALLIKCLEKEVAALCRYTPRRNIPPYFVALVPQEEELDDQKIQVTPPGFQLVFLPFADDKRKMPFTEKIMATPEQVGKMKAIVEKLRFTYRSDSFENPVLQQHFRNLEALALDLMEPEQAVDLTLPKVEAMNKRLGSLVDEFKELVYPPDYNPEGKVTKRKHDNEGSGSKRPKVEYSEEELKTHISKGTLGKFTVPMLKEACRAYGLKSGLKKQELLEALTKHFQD
Ku5D T305D;S306D;T307D;S314D;T316D (human), sequence (P13010 1-718, chain 2 of 2): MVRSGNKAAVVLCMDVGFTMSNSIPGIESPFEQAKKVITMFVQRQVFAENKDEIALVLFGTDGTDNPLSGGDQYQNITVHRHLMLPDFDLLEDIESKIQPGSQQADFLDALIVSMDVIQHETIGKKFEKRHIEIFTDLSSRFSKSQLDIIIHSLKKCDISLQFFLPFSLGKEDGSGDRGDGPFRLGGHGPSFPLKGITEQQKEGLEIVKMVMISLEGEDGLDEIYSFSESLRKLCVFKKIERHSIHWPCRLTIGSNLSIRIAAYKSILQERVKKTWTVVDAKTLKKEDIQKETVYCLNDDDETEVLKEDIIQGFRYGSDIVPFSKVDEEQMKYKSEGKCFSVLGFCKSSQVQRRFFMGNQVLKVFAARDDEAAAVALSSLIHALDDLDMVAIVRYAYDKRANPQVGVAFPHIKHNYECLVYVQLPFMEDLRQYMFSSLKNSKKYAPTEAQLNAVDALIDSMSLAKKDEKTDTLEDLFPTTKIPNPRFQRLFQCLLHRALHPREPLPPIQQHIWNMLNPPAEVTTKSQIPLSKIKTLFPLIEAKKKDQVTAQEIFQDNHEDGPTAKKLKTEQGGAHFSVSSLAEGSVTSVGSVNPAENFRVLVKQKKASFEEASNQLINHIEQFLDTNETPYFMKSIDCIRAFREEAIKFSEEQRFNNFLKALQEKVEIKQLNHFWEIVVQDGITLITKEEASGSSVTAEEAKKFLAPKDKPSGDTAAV

[3] = MST: 50 mM Tris pH 8.0, 50 mM NaCl

Ku70/Ku80 heterodimer FL (baculovirus) (human), sequence (P12956 whole entry, chain 1 of 2): as the sequence (P12956 whole entry T305D/S306D/T307D/S314D/T316D, chain 1 of 2) above, with D305T, D306S, D307T, D314S, D316T counted along it
Ku70/Ku80 heterodimer FL (baculovirus) (human), sequence (P13010 1-718, chain 2 of 2): as the sequence (P13010 1-718, chain 2 of 2) above

polyU
Kd [1, 3]: 1400 nM

FL LINP1
Kd ([1]; Hill 1.0, MST: 50 mM Tris pH 8.0, 50 mM NaCl): 740 nM
binding signal (fold better than WT) [2]: 2

polyC
Kd [1, 3]: 1290 nM

LINP1 SL2 + SL3
Kd [1, 3]: 700 nM

polyA
Kd [1, 3]: 4800 nM
